From publication PMC7192624, “A Snu114–GTP–Prp8 module forms a relay station for efficient splicing in yeast” (Nucleic Acids Research, 2020)

Experiments:
Test in all cases: SEC; two proteins co-produced in insect cells, both Strep-tagged; StrepTactin capture, then SEC on Superdex S200 in 10 mM TRIS-HCl pH 8.0, 300 mM NaCl, 2 mM DTT; co-purification of wt and variant complexes
Details in all cases: both partners purified
[1] = target: T1, Snu114^72-1008 (yeast Snu114 lacking the acidic N-terminal region) (yeast, UniProt P36048 72-1008)
T1 construct: synthetic gene; Co-purifies with endogenous GTP; source: insect cells (MultiBac baculovirus); co-produced with Prp8 constructs or alone; purified (StrepTactin, SEC); not shown: Strep tag (from the vector pIDS-C-Strep), C-terminal, kept
T1 sequence (looked up): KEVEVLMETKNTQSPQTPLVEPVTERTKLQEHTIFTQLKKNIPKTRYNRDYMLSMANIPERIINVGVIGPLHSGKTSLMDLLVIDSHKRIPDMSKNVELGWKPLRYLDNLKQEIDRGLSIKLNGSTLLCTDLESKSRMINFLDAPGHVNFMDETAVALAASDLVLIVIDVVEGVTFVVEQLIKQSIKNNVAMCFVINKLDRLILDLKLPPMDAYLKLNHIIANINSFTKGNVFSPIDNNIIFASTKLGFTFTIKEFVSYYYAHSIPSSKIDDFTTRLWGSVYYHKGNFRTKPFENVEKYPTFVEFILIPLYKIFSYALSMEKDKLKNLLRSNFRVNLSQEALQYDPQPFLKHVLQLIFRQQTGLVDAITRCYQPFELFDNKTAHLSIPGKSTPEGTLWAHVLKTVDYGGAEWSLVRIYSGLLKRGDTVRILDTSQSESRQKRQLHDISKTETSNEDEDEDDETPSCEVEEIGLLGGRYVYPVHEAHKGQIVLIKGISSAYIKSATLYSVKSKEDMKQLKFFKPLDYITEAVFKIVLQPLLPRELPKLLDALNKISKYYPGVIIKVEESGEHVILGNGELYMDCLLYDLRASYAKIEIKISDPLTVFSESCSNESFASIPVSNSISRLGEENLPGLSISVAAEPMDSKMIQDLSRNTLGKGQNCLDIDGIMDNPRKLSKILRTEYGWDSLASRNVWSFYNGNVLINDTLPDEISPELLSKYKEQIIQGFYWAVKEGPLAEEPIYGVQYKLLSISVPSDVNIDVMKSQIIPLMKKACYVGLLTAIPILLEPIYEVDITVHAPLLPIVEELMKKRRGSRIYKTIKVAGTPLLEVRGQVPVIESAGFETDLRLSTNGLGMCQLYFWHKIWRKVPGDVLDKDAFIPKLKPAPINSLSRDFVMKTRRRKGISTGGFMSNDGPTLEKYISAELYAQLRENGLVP

Snu114^72-1008 K146A = target: T2, Snu114^72-1008 K146A (yeast, UniProt P36048 72-1008, K146A)
T2 construct: Insoluble when produced alone; also called Snu114^K146A; source: insect cells, co-produced with Prp8^SBR; complex purified; not shown: Strep tag (from the vector pIDS-C-Strep), C-terminal, kept
T2 sequence (looked up): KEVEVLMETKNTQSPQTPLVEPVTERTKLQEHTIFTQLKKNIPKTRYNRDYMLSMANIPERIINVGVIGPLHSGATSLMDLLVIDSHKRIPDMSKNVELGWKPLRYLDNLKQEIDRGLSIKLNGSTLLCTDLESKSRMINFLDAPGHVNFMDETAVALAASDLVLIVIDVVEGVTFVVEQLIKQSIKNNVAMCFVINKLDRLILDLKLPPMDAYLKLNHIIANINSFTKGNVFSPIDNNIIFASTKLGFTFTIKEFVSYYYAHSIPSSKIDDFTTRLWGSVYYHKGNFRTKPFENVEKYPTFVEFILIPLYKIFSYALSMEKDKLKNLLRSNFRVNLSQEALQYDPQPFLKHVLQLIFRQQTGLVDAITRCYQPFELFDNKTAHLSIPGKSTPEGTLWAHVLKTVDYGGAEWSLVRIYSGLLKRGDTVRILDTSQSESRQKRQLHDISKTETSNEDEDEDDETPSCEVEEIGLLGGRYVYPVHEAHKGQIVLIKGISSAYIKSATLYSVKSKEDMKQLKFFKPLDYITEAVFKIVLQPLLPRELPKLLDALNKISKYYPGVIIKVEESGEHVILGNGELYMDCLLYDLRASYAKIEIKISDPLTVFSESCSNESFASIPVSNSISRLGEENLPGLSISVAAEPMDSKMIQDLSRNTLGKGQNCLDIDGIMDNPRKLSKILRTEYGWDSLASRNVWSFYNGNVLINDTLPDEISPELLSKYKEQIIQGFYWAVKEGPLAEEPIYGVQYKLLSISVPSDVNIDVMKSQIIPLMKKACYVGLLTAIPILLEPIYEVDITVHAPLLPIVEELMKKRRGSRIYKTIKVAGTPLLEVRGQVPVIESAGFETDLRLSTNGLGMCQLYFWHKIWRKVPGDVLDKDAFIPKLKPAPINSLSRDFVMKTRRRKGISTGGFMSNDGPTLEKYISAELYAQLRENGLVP

Snu114^72-1008 S190A = target: T3, Snu114^72-1008 S190A (yeast, UniProt P36048 72-1008, S190A)
T3 construct: Insoluble when produced alone; also called Snu114^S190A; source: insect cells, co-produced with Prp8^SBR; complex purified; not shown: Strep tag (from the vector pIDS-C-Strep), C-terminal, kept
T3 sequence (looked up): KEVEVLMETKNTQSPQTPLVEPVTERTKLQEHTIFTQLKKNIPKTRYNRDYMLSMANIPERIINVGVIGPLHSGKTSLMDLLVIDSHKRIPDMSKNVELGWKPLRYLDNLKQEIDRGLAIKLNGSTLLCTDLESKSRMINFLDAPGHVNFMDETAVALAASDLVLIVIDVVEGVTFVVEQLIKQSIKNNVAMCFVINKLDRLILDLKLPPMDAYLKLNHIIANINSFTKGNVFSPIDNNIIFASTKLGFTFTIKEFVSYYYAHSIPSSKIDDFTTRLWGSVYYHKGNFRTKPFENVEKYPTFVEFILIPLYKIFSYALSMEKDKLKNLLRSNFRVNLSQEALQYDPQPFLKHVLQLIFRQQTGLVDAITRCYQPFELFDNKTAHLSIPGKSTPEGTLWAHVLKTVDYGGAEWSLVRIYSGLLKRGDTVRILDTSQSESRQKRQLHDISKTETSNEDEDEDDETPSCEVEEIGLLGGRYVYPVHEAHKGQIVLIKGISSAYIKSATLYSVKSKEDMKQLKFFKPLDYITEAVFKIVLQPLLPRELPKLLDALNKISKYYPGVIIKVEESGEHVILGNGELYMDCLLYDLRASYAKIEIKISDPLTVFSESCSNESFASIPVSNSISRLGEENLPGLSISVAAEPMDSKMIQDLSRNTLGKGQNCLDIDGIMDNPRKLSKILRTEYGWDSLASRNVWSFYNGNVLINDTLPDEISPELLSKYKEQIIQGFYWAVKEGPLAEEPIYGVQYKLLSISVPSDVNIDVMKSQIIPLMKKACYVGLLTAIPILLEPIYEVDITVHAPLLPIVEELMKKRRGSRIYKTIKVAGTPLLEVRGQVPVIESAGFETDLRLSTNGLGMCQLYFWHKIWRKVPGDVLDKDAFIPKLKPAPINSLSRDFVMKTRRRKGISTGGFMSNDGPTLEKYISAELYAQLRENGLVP

binding result [1]: binds
binding result (Snu114^72-1008 K146A): binds
binding result (Snu114^72-1008 S190A): binds
B1: Prp8^SBR (Prp8 Snu114-binding region, Prp8 residues 315-555), recombinant (domain or fragment, yeast, UniProt P33334 315-555, looked up)
chain: STPLRDEVTDKNYYYLFDKKSFFNGKALNNAIPGGPKFEPLYPREEEEDYNEFNSIDRVIFRVPIRSEYKVAFPHLYNSRPRSVRIPWYNNPVSCIIQNDEEYDTPALFFDPSLNPIPHFIDNNSSLNVSNTKENGDFTLPEDFAPLLAEEEELILPNTKDAMSLYHSPFPFNRTKGKMVRAQDVALAKKWFLQHPDEEYPVKVKVSYQKLLKNYVLNELHPTLPTNHNKTKLLKSLKNTK
notes: Could not be produced alone; In the crystal residues 367-533 were modelled (416-419 and 435-449 without density); also called wt Prp8^SBR; Prp8^SBP; source: complex purified (StrepTactin, SEC); not shown: Strep tag (from the vector pFL-N-Strep), N-terminal, kept
